Experimental data as given in patent publication US20100016697.

Biological target: T1, MT1-MMP specific fluorogenic substrate MCA-Pro-Leu-Ala-Cys(p-OmeBz)-Trp-Ala-Arg(Dpa)-NH2
T1 chain: PLACWAR

Protein	fluorescence emission (cleavage of the quenched fluorogenic substrate)
a disintegrin and metalloproteinase (ADAM)-10 (R&D Systems) (protein) TTSAEKNTCQLYIQTDHLFFKYYGTREAVIAQISSHVKAIDTIYQTTDFSGIRNISFMVKRIRINTTADEKDPTNPFRFPNIGVEKFLELNSEQNHDDYCLAYVFTDRDFDDGVLGLAWVGAPSGSSGGICEKSKLYSDGKKKSLNTGIITVQNYGSHVPPKVSHITFAHEVGHNFGSPHDSGTECTPGESKNLGQKENGNYIMYARATSGDKLNNNKFSLCSIRNISQVLEKKRNNCFVESGQPICGNGMVEQGEECDCGYSDQCKDECCFDANQPEGRKCKLKPGKQCSPSQGPCCTAQCAFKSKSEKCRDDSDCAREGICNGFTALCPASDPKPNFTDCNRHTQVCINGQCAGSICEKYGLEECTCASSDGKDDKELCHVCCMKKMDPSTCASTGSVQWSRHFSGRTITLQPGSPCNDFRGYCDVFMRCRLVDADGPLARLKKAIFSPELYENIAE	Incubation with MMP-2/9, MMP-8, or ADAM-10 and 17 alone failed to cause fluorescence emission from the MT1-MMP substrate.
MMP-2 (part of MMP-2/9, Chemicon) (protein) YNFFPRKPKWDKNQITYRIIGYTPDLDPETVDDAFARAFQVWSDVTPLRFSRIHDGEADIMINFGRWEHGDGYPFDGKDGLLAHAFAPGTGVGGDSHFDDDELWTLGEGQVVRVKYGNADGEYCKFPFLFNGKEYNSCTDTGRSDGFLWCSTTYNFEKDGKYGFCPHEALFTMGGNAEGQPCKFPFRFQGTSYDSCTTEGRTDGYRWCGTTEDYDRDKKYGFCPETAMSTVGGNSEGAPCVFPFTFLGNKYESCTSAGRSDGKMWCATTANYDDDRKWGFCPDQGYSLFLVAAHEFGHAMGLEHSQDPGALMAPIYTYTKNFRLSQDDIKGIQELYGASPDIDLGTGPTPTLGPVTPEICKQDIVFDGIAQIRGEIFFFKDRFIWRTVTPRDKPMGPLLVATFWPELPEKIDAVYEAPQEEKAVFFAGNEYWIYSASTLERGYPKPLTSLGLPPDVQRVDAAFNWSKNKKTYIFAGDKFWRYNEVKKKMDPGFPKLIADAWNAIPDNLDAVVDLQGGGHSYFFKGAYYLKLENQSLKSVKFGSIKSDWLGC	Incubation with MMP-2/9, MMP-8, or ADAM-10 and 17 alone failed to cause fluorescence emission from the MT1-MMP substrate.
